Assay results: IntAct's records for PubMed 11106648

B1: Tyrosine-protein phosphatase non-receptor type 1 (Homo sapiens), P18031 (parent)
chain: MEMEKEFEQIDKSGSWAAIYQDIRHEASDFPCRVAKLPKNKNRNRYRDVSPFDHSRIKLHQEDNDYINASLIKMEEAQRSYILTQGPLPNTCGHFWEMVWEQKSRGVVMLNRVMEKGSLKCAQYWPQKEEKEMIFEDTNLKLTLISEDIKSYYTVRQLELENLTTQETREILHFHYTTWPDFGVPESPASFLNFLFKVRESGSLSPEHGPVVVHCSAGIGRSGTFCLADTCLLLMDKRKDPSSVDIKKVLLEMRKFRMGLIQTADQLRFSYLAVIEGAKFIMGDSSVQDQWKELSHEDLEPPPEHIPPPPRPPKRILEPHNGKCREFFPNHQWVKEETQEDKDCPIKEEKGSPLNAAPYGIESMSQDTEVRSRVVGGSLRGAQAASPAKGEPSLPEKDEDHALSYWKPFLVNMCVATVLTAGAYLCYRFLFNSNT

Variants of: B1
Conditions: with cadh2_chick CDH2, P10288
Chain of cadh2_chick CDH2, P10288 (P10288 whole entry): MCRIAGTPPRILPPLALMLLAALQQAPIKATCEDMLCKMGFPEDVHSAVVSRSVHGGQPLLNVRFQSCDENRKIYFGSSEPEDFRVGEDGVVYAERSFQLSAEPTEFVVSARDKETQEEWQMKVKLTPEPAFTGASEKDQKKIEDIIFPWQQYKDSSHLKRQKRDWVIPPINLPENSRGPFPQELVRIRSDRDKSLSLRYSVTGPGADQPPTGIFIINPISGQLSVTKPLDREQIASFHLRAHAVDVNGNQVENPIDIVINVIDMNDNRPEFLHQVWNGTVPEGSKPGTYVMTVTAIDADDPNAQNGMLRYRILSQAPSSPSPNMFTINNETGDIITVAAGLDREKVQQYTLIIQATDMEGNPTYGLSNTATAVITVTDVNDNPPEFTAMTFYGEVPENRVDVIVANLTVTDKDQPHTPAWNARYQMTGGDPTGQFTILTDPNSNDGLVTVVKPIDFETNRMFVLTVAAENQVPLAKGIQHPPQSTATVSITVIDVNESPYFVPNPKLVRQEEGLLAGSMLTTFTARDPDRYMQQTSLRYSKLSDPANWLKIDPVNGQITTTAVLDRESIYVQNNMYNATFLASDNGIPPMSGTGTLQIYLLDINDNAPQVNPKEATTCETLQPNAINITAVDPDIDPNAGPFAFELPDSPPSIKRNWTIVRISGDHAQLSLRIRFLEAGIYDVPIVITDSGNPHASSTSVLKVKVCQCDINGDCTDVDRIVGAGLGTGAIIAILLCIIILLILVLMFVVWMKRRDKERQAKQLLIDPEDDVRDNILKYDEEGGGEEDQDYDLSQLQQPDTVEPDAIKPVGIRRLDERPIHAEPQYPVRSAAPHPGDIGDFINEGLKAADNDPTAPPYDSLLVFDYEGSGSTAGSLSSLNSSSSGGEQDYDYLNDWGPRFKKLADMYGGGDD

Variant	effect of a mutation on the interaction
MEMEKEFEQIDKSGSWAAIYQDIRHEASDFPCRVAKLPKNKNRNRYRDVSPFDHSRIKLHQEDNDFINASLIKMEEAQRSYILTQGPLPNTCGHFWEMVWEQKSRGVVMLNRVMEKGSLKCAQYWPQKEEKEMIFEDTNLKLTLISEDIKSYFTVRQLELENLTTQETREILHFHYTTWPDFGVPESPASFLNFLFKVRESGSLSPEHGPVVVHCSAGIGRSGTFCLADTCLLLMDKRKDPSSVDIKKVLLEMRKFRMGLIQTADQLRFSYLAVIEGAKFIMGDSSVQDQWKELSHEDLEPPPEHIPPPPRPPKRILEPHNGKCREFFPNHQWVKEETQEDKDCPIKEEKGSPLNAAPYGIESMSQDTEVRSRVVGGSLRGAQAASPAKGEPSLPEKDEDHALSYWKPFLVNMCVATVLTAGAYLCYRFLFNSNT [Y66F;Y153F]	increasing interaction
MEMEKEFEQIDKSGSWAAIYQDIRHEASDFPCRVAKLPKNKNRNRYRDVSPFDHSRIKLHQEDNDFINASLIKMEEAQRSYILTQGPLPNTCGHFWEMVWEQKSRGVVMLNRVMEKGSLKCAQYWPQKEEKEMIFEDTNLKLTLISEDIKSYYTVRQLELENLTTQETREILHFHYTTWPDFGVPESPASFLNFLFKVRESGSLSPEHGPVVVHCSAGIGRSGTFCLADTCLLLMDKRKDPSSVDIKKVLLEMRKFRMGLIQTADQLRFSYLAVIEGAKFIMGDSSVQDQWKELSHEDLEPPPEHIPPPPRPPKRILEPHNGKCREFFPNHQWVKEETQEDKDCPIKEEKGSPLNAAPYGIESMSQDTEVRSRVVGGSLRGAQAASPAKGEPSLPEKDEDHALSYWKPFLVNMCVATVLTAGAYLCYRFLFNSNT [Y66F]	increasing interaction
MEMEKEFEQIDKSGSWAAIYQDIRHEASDFPCRVAKLPKNKNRNRYRDVSPFDHSRIKLHQEDNDYINASLIKMEEAQRSYILTQGPLPNTCGHFWEMVWEQKSRGVVMLNRVMEKGSLKCAQYWPQKEEKEMIFEDTNLKLTLISEDIKSFYTVRQLELENLTTQETREILHFHYTTWPDFGVPESPASFLNFLFKVRESGSLSPEHGPVVVHCSAGIGRSGTFCLADTCLLLMDKRKDPSSVDIKKVLLEMRKFRMGLIQTADQLRFSYLAVIEGAKFIMGDSSVQDQWKELSHEDLEPPPEHIPPPPRPPKRILEPHNGKCREFFPNHQWVKEETQEDKDCPIKEEKGSPLNAAPYGIESMSQDTEVRSRVVGGSLRGAQAASPAKGEPSLPEKDEDHALSYWKPFLVNMCVATVLTAGAYLCYRFLFNSNT [Y152F]	decreasing interaction
MEMEKEFEQIDKSGSWAAIYQDIRHEASDFPCRVAKLPKNKNRNRYRDVSPFDHSRIKLHQEDNDFINASLIKMEEAQRSYILTQGPLPNTCGHFWEMVWEQKSRGVVMLNRVMEKGSLKCAQYWPQKEEKEMIFEDTNLKLTLISEDIKSFYTVRQLELENLTTQETREILHFHYTTWPDFGVPESPASFLNFLFKVRESGSLSPEHGPVVVHCSAGIGRSGTFCLADTCLLLMDKRKDPSSVDIKKVLLEMRKFRMGLIQTADQLRFSYLAVIEGAKFIMGDSSVQDQWKELSHEDLEPPPEHIPPPPRPPKRILEPHNGKCREFFPNHQWVKEETQEDKDCPIKEEKGSPLNAAPYGIESMSQDTEVRSRVVGGSLRGAQAASPAKGEPSLPEKDEDHALSYWKPFLVNMCVATVLTAGAYLCYRFLFNSNT [Y66F;Y152F]	decreasing interaction
MEMEKEFEQIDKSGSWAAIYQDIRHEASDFPCRVAKLPKNKNRNRYRDVSPFDHSRIKLHQEDNDYINASLIKMEEAQRSYILTQGPLPNTCGHFWEMVWEQKSRGVVMLNRVMEKGSLKCAQYWPQKEEKEMIFEDTNLKLTLISEDIKSYFTVRQLELENLTTQETREILHFHYTTWPDFGVPESPASFLNFLFKVRESGSLSPEHGPVVVHCSAGIGRSGTFCLADTCLLLMDKRKDPSSVDIKKVLLEMRKFRMGLIQTADQLRFSYLAVIEGAKFIMGDSSVQDQWKELSHEDLEPPPEHIPPPPRPPKRILEPHNGKCREFFPNHQWVKEETQEDKDCPIKEEKGSPLNAAPYGIESMSQDTEVRSRVVGGSLRGAQAASPAKGEPSLPEKDEDHALSYWKPFLVNMCVATVLTAGAYLCYRFLFNSNT [Y153F]	increasing interaction

Next, values leading:

effect of a mutation on the interaction	Variant
decreasing interaction	MEMEKEFEQIDKSGSWAAIYQDIRHEASDFPCRVAKLPKNKNRNRYRDVSPFDHSRIKLHQEDNDFINASLIKMEEAQRSYILTQGPLPNTCGHFWEMVWEQKSRGVVMLNRVMEKGSLKCAQYWPQKEEKEMIFEDTNLKLTLISEDIKSFFTVRQLELENLTTQETREILHFHYTTWPDFGVPESPASFLNFLFKVRESGSLSPEHGPVVVHCSAGIGRSGTFCLADTCLLLMDKRKDPSSVDIKKVLLEMRKFRMGLIQTADQLRFSYLAVIEGAKFIMGDSSVQDQWKELSHEDLEPPPEHIPPPPRPPKRILEPHNGKCREFFPNHQWVKEETQEDKDCPIKEEKGSPLNAAPYGIESMSQDTEVRSRVVGGSLRGAQAASPAKGEPSLPEKDEDHALSYWKPFLVNMCVATVLTAGAYLCYRFLFNSNT [Y66F;Y152F;Y153F]
increasing interaction	MEMEKEFEQIDKSGSWAAIYQDIRHEASDFPCRVAKLPKNKNRNRYRDVSPFDHSRIKLHQEDNDYINASLIKMEEAQRSYILTQGPLPNTCGHFWEMVWEQKSRGVVMLNRVMEKGSLKCAQYWPQKEEKEMIFEDTNLKLTLISEDIKSYYTVRQLELENLTTQETREILHFHYTTWPDFGVPESPASFLNFLFKVRESGSLSPEHGPVVVHSSAGIGRSGTFCLADTCLLLMDKRKDPSSVDIKKVLLEMRKFRMGLIQTADQLRFSYLAVIEGAKFIMGDSSVQDQWKELSHEDLEPPPEHIPPPPRPPKRILEPHNGKCREFFPNHQWVKEETQEDKDCPIKEEKGSPLNAAPYGIESMSQDTEVRSRVVGGSLRGAQAASPAKGEPSLPEKDEDHALSYWKPFLVNMCVATVLTAGAYLCYRFLFNSNT [C215S]

Variants of: B1
Conditions: with cadh2_mouse Cdh2, P15116
Chain of cadh2_mouse Cdh2, P15116 (P15116 whole entry): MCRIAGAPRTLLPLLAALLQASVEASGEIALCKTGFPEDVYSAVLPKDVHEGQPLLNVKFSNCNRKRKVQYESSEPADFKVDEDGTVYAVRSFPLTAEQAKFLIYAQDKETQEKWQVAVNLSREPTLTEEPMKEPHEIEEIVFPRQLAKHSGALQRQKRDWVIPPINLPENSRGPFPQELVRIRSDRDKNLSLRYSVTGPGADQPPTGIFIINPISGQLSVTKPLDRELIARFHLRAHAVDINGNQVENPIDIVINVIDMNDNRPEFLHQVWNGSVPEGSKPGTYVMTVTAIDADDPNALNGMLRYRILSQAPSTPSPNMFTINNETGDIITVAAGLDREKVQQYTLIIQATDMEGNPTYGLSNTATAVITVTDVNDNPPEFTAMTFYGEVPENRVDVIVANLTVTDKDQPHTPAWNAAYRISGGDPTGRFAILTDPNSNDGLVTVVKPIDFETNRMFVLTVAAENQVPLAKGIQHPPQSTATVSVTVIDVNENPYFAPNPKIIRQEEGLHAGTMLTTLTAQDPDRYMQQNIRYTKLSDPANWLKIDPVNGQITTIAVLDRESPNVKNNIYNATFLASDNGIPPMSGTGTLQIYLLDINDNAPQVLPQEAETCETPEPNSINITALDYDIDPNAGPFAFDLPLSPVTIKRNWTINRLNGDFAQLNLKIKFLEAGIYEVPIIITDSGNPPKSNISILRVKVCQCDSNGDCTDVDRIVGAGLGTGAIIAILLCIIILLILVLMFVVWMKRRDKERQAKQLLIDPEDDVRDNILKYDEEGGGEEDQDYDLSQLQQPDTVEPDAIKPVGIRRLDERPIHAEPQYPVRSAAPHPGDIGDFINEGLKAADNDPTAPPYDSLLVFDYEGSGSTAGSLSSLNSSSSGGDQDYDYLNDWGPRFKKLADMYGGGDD

effect of a mutation on the interaction	Variant
disrupting interaction	MEMEKEFEQIDKSGSWAAIYQDIRHEASDFPCRVAKLPKNKNRNRYRDVSPFDHSRIKLHQEDNDYINASLIKMEEAQRSYILTQGPLPNTCGHFWEMVWEQKSRGVVMLNRVMEKGSLKCAQYWPQKEEKEMIFEDTNLKLTLISEDIKSFYTVRQLELENLTTQETREILHFHYTTWPDFGVPESPASFLNFLFKVRESGSLSPEHGPVVVHCSAGIGRSGTFCLADTCLLLMDKRKDPSSVDIKKVLLEMRKFRMGLIQTADQLRFSYLAVIEGAKFIMGDSSVQDQWKELSHEDLEPPPEHIPPPPRPPKRILEPHNGKCREFFPNHQWVKEETQEDKDCPIKEEKGSPLNAAPYGIESMSQDTEVRSRVVGGSLRGAQAASPAKGEPSLPEKDEDHALSYWKPFLVNMCVATVLTAGAYLCYRFLFNSNT [Y152F]

Variants of: B1
Conditions: with cadh2_mouse Cdh2, P15116
Remark: another data set of the same source

effect of a mutation on the interaction	Variant
disrupting interaction strength	MEMEKEFEQIDKSGSWAAIYQDIRHEASDFPCRVAKLPKNKNRNRYRDVSPFDHSRIKLHQEDNDYINASLIKMEEAQRSYILTQGPLPNTCGHFWEMVWEQKSRGVVMLNRVMEKGSLKCAQYWPQKEEKEMIFEDTNLKLTLISEDIKSYYTVRQLELENLTTQETREILHFHYTTWPDFGVPESPASFLNFLFKVRESGSLSPEHGPVVVHSSAGIGRSGTFCLADTCLLLMDKRKDPSSVDIKKVLLEMRKFRMGLIQTADQLRFSYLAVIEGAKFIMGDSSVQDQWKELSHEDLEPPPEHIPPPPRPPKRILEPHNGKCREFFPNHQWVKEETQEDKDCPIKEEKGSPLNAAPYGIESMSQDTEVRSRVVGGSLRGAQAASPAKGEPSLPEKDEDHALSYWKPFLVNMCVATVLTAGAYLCYRFLFNSNT [C215S]
